Results from IntAct's records for PubMed 18776901.

B1: Non-catalytic caspase homolog csp-3 (Caenorhabditis elegans), G5ECW5 (parent)
chain: MFFGKLGGFAFFLQRAVRCDGFIDNFFDRIPKFFQFMKSKFPSHQTSSSQADLLVSFSTSPGFLSFKDETKDTWYIQELYRVIIENAKDTHLADLLTETNRRVVEKYEADKVVFVCKQAPEFWSRFTKQLFFMSRNDVF
partner: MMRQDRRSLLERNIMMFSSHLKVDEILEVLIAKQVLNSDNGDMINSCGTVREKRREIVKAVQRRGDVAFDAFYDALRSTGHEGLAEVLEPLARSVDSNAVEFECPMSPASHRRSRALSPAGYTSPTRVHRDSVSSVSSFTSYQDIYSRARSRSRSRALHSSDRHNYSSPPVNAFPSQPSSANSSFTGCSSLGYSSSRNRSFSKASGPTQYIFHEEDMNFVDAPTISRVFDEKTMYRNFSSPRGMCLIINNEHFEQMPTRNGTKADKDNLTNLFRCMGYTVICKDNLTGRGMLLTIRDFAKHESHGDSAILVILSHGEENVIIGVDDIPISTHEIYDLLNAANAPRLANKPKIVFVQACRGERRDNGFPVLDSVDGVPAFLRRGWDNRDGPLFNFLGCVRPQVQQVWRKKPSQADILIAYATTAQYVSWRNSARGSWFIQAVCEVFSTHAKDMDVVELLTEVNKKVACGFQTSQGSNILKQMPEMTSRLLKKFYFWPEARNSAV

Variants of: B1
Conditions: with ced3_caeel ced-3, P42573

**Q.** F57D was tested. Which “effect of a mutation on the interaction” value did it give?
**A.** decreasing interaction

Variants of: B1
Conditions: with ced3_caeel ced-3, P42573
Remark: another data set of the same source

**Q.** With F57D as the variant, how does the “effect of a mutation on the interaction” value read?
**A.** decreasing interaction strength
